Assay results as given in US20200108125A1.

Target: TrkB (mouse) (UniProt P15209)
Test: cell-based or functional assay

Chain of UniProt P15209 (P15209 32-821): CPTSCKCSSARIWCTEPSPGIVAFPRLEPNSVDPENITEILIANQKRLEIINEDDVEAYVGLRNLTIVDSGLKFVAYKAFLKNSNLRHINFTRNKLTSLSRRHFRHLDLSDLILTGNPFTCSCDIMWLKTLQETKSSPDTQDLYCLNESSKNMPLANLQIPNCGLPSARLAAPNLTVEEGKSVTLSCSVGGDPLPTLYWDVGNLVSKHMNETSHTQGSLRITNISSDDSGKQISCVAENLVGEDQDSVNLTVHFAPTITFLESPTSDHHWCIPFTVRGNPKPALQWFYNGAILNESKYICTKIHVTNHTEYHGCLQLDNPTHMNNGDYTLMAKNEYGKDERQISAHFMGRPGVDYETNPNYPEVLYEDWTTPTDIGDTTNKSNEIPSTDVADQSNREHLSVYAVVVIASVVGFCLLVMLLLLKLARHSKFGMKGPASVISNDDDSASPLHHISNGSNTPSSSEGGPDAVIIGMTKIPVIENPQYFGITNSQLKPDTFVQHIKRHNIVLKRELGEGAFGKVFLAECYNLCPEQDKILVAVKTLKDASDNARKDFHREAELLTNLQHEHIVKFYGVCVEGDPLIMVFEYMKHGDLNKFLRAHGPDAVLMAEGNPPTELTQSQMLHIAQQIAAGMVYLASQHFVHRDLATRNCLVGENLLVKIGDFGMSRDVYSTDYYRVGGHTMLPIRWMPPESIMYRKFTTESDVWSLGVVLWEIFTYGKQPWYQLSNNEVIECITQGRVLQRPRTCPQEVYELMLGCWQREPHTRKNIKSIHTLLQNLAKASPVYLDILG

With “Recombinant human BDNF (from UniProt P23560 129-247) (ligand)” the Fndc5 gene expression (qPCR) in primary cortical neurons stimulated overnight with BDNF (0.1-100 ng/ml); lowest concentration with a significant reduction was 1 ng/mL.
